From paper PMC4269414, “Stubborn Contaminants: Influence of Detergents on the Purity of the Multidrug ABC Transporter BmrA” (PLoS ONE, 2014)

Experiments:
[1] = target: the molecule itself; experiment: SEC; HiLoad 16/60 Superdex 200 PG, 25 mM Tris-HCl pH 8.0, 150 mM NaCl with detergent (DDM, UDM, UTM, LMNG, LDAO or FC12), 4°C; elution volume compared with that expected for dimers in detergent micelles
[2] = target: the molecule itself; experiment: crystal structure; OmpF crystallised from the FC12-purified BmrA sample with 5 mM ADP; PEG 1500, 2-methyl-2,4-pentanediol, 0.1 M Tris-HCl pH 8.0, 19°C; space group C2; molecular replacement with an OmpF trimer
[3] = target: T1, E504Q BmrA mutant, full-length, His6-tagged (uncleaved) (Bacillus subtilis, UniProt O06967 1-589, E504Q); experiment: pull-down; second Ni2+ High Trap chelating column in DDM after partial trypsin cleavage of the N-terminal His6 tag; flow-through against the peak eluted with 250 mM imidazole, fractions on SDS-PAGE; conditions: both partners purified
T1 construct: BmrA, Bacillus subtilis, E504Q mutant; the part of the sample left uncut after a short trypsin digestion with 2 mM ATP and MgCl2; also called tagged, uncleaved monomer; source: E. coli membranes, solubilised with DDM, purified (Ni2+ high trap chelating column, PD-10 desalting); not shown: His6, N-terminal, kept
T1 sequence (looked up): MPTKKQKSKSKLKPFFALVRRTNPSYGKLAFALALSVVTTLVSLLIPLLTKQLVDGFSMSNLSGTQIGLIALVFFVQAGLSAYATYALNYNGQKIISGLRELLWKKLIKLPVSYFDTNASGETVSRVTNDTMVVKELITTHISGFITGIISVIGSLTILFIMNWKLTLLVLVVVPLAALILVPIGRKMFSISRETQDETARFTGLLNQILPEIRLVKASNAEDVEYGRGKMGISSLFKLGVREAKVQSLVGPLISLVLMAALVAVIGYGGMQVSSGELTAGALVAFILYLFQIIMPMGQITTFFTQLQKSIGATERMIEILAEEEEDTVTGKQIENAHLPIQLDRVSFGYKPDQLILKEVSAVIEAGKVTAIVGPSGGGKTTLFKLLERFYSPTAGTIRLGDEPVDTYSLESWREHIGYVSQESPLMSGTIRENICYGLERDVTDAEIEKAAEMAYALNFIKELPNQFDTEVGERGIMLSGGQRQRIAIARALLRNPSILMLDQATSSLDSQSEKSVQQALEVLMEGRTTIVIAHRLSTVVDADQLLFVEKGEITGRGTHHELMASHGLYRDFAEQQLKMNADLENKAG

B1: BmrA (Bacillus multidrug resistance ATP), 6-histidine N-terminal tag (natural protein, Bacillus subtilis, UniProt O06967 1-589, looked up)
chain: MPTKKQKSKSKLKPFFALVRRTNPSYGKLAFALALSVVTTLVSLLIPLLTKQLVDGFSMSNLSGTQIGLIALVFFVQAGLSAYATYALNYNGQKIISGLRELLWKKLIKLPVSYFDTNASGETVSRVTNDTMVVKELITTHISGFITGIISVIGSLTILFIMNWKLTLLVLVVVPLAALILVPIGRKMFSISRETQDETARFTGLLNQILPEIRLVKASNAEDVEYGRGKMGISSLFKLGVREAKVQSLVGPLISLVLMAALVAVIGYGGMQVSSGELTAGALVAFILYLFQIIMPMGQITTFFTQLQKSIGATERMIEILAEEEEDTVTGKQIENAHLPIQLDRVSFGYKPDQLILKEVSAVIEAGKVTAIVGPSGGGKTTLFKLLERFYSPTAGTIRLGDEPVDTYSLESWREHIGYVSQESPLMSGTIRENICYGLERDVTDAEIEKAAEMAYALNFIKELPNQFDTEVGERGIMLSGGQRQRIAIARALLRNPSILMLDEATSSLDSQSEKSVQQALEVLMEGRTTIVIAHRLSTVVDADQLLFVEKGEITGRGTHHELMASHGLYRDFAEQQLKMNADLENKAG
notes: also called multidrug ABC transporter BmrA; source: E. coli C41(DE3) membranes, solubilised and purified in detergent (Q-Sepharose and Ni column in FC12; or Ni-NTA and SEC in DDM, UDM, UTM, LMNG, LDAO or FC12); not shown: His6, N-terminal, kept
stoichiometry N [1]: 2

B2: Outer membrane protein F (OmpF) (natural protein, E. coli (endogenous in C41(DE3)), UniProt P02931 23-362, looked up)
chain: AEIYNKDGNKVDLYGKAVGLHYFSKGNGENSYGGNGDMTYARLGFKGETQINSDLTGYGQWEYNFQGNNSEGADAQTGNKTRLAFAGLKYADVGSFDYGRNYGVVYDALGYTDMLPEFGGDTAYSDDFFVGRVGGVATYRNSNFFGLVDGLNFAVQYLGKNERDTARRSNGDGVGGSISYEYEGFGIVGAYGAADRTNLQEAQPLGNGKKAEQWATGLKYDANNIYLAANYGETRNATPITNKFTNTSGFANKTQDVLLVAQYQFDFGLRPSIAYTKSKAKDVEGIGDVDLVNYFEVGATYYFNKNMSTYVDYIINQIDSDNKLGVGSDDTVAVGIVYQF
notes: Outer membrane protein F of E. coli, identified by mass spectrometry as P02931; structure deposited as PDB 4JFB, solved with a trimer of PDB 2ZFG as search model; The expression strain is C41(DE3), whose OmpF may differ from that entry; also called outer membrane porin OmpF; source: endogenous, E. coli C41(DE3); co-extracted and co-purified with BmrA in FC12, crystallised from that sample
stoichiometry N [2]: 3

B3: E504Q BmrA mutant, untagged, cleaved by trypsin (starts at Leu12) (domain or fragment, Bacillus subtilis, UniProt O06967 12-589, looked up)
chain: LKPFFALVRRTNPSYGKLAFALALSVVTTLVSLLIPLLTKQLVDGFSMSNLSGTQIGLIALVFFVQAGLSAYATYALNYNGQKIISGLRELLWKKLIKLPVSYFDTNASGETVSRVTNDTMVVKELITTHISGFITGIISVIGSLTILFIMNWKLTLLVLVVVPLAALILVPIGRKMFSISRETQDETARFTGLLNQILPEIRLVKASNAEDVEYGRGKMGISSLFKLGVREAKVQSLVGPLISLVLMAALVAVIGYGGMQVSSGELTAGALVAFILYLFQIIMPMGQITTFFTQLQKSIGATERMIEILAEEEEDTVTGKQIENAHLPIQLDRVSFGYKPDQLILKEVSAVIEAGKVTAIVGPSGGGKTTLFKLLERFYSPTAGTIRLGDEPVDTYSLESWREHIGYVSQESPLMSGTIRENICYGLERDVTDAEIEKAAEMAYALNFIKELPNQFDTEVGERGIMLSGGQRQRIAIARALLRNPSILMLDQATSSLDSQSEKSVQQALEVLMEGRTTIVIAHRLSTVVDADQLLFVEKGEITGRGTHHELMASHGLYRDFAEQQLKMNADLENKAG
notes: BmrA, Bacillus subtilis, E504Q mutant, cut by trypsin between Lys11 and Leu12; The His6 tag is lost together with residues 1-11; also called untagged BmrA; untagged, cleaved, monomer
binding result [3]: binds
